Measured values published in US20230250142A1 (GlaxoSmithKline, published 2023).

Key:
GalacTag7_fHbp = molecular target: T1, GalacTag7_fHbp (Neisseria meningitidis serogroup B / …, UniProt E6MV22 32-274); assay: mixed in vitro at room temperature ~16 h, SDS-PAGE
T1 construct: Fusion of a GBS BP-2a tag peptide with N. meningitidis fHbp variant 1.1
T1 sequence: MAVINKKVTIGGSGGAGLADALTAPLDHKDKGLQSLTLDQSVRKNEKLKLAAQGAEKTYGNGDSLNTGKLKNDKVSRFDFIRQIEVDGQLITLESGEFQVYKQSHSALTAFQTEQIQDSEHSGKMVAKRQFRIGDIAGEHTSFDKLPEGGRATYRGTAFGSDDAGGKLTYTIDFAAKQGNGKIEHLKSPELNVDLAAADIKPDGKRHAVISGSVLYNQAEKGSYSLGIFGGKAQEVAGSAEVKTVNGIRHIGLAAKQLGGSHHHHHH
Experimental: (§1) Each GalacDock/GalacTag pair was mixed in vitro at a 1:1 molar ratio at room temperature for approximately 16 hours, and samples were then subjected to SDS-PAGE electrophoresis.

GalacTag5_fHbp = molecular target: T2, GalacTag5_fHbp (Neisseria meningitidis serogroup B / …, UniProt E6MV22 32-274); assay: mixed in vitro at room temperature ~16 h, SDS-PAGE
T2 construct: Fusion of a GBS BP1 tag peptide with N. meningitidis fHbp variant 1.1
T2 sequence: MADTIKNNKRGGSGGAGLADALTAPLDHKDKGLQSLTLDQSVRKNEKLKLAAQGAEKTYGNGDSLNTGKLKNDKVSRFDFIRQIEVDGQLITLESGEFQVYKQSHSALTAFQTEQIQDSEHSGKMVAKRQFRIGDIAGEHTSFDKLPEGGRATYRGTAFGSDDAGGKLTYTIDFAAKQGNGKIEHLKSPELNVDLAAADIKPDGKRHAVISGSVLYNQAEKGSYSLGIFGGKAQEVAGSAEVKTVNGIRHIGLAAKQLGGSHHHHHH
Experimental: as §1

GalacTag6_fHbp (N636A) = molecular target: T3, GalacTag6_fHbp (N636A); assay: mixed in vitro at room temperature ~16 h, SDS-PAGE (FIG. 3A)
T3 construct: also called variant GalacTag6_fHbp
T3 chain: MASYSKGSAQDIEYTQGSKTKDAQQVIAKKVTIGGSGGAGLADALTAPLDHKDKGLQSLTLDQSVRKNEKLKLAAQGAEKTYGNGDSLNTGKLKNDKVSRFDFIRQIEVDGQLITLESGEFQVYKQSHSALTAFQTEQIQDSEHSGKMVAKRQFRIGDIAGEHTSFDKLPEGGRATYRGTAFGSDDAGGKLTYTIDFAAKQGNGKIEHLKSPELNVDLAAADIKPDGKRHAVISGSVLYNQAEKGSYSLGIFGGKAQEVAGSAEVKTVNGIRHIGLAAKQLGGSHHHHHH
Experimental: (§2) Using these variant GalacDock6 and GalacTag6_fHbp polypeptides, pairs as shown in Table 3 were mixed in vitro at a 1:1 molar ratio at room temperature for approximately 16 hours, and samples were then subjected to SDS-PAGE electrophoresis.

[1] = molecular target: T4, GalacTag6_GBSFerritinDK-PW-092+N-terminal helix; assay: 1:1 mix with the nanoparticle, room temperature ~16 h, SDS-PAGE and HPLC-SEC (FIG. 6)
T4 construct: Self-assembled ferritin nanoparticle displaying GalacTag6; also called GalacTag6_GBSFerritinDK-PW-092+ helix; GalacTag6 + GBS ferritin NP subunit from DK-092-PW w/N-terminal helix
T4 chain: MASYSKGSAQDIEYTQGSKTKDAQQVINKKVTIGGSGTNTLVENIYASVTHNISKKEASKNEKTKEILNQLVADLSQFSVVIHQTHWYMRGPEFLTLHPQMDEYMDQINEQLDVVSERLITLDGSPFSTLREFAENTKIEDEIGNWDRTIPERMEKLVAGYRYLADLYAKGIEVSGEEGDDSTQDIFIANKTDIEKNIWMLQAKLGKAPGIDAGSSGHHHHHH

[2] = molecular target: T5, GalacTag6_GBSFerritinLMG14747; assay: SDS-PAGE and HPLC-SEC (FIG. 4)
T5 construct: Self-assembled ferritin nanoparticle displaying GalacTag6; also called GalacTag6 + Ferritin NP Subunit: LMG_14747
T5 chain: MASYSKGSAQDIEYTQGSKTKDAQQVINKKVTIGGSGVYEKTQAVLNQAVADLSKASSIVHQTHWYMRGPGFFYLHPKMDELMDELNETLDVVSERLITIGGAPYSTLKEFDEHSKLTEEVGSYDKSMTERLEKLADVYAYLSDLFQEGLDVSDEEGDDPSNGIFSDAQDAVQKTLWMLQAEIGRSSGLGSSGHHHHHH

GalacTag6_fHbp [3] = molecular target: T6, GalacTag6_fHbp; assay: 1:1 molar mix, room temperature ~16 h, SDS-PAGE
T6 construct: Fusion of a GBS BP-2a tag peptide with N. meningitidis fHbp variant 1.1; also called GalacTag6_ffibp; wt GalacTag
T6 chain: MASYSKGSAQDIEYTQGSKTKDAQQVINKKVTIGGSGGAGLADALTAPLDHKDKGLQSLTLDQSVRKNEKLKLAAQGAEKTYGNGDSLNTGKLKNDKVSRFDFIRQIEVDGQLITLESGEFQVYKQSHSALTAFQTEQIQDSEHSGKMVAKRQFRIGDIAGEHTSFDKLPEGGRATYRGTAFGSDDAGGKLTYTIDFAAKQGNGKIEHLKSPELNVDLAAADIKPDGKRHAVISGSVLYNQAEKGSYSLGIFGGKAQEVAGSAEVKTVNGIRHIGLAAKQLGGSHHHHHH
Experimental: as §1

[4] = molecular target: T7, GalacTag6_GBSFerritinDK-PW-092; assay: 1:1 mix with the nanoparticle, room temperature, SDS-PAGE and HPLC-SEC (FIGS. 5A, 5B)
T7 construct: also called GalacTag6 + GBS ferritin NP subunit from DK-092-PW
T7 chain: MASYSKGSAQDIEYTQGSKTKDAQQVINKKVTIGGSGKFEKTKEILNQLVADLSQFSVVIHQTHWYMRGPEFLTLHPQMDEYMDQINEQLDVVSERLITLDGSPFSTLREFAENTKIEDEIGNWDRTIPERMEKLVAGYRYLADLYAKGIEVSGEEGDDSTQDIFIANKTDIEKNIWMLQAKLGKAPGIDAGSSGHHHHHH

GalacTag6_fHbp [5] = molecular target: T6, GalacTag6_fHbp; assay: mixed in vitro at room temperature ~16 h, SDS-PAGE (FIG. 3A)
Experimental: as §2

B1: GalacDock7 with MHHHHHHS leader (designed binder)
chain: MHHHHHHSNTETKPQVDKNFADKELDYANNKKDKGTVSASVGDVKKYHVGTKILKGSDYKKLIWTDSMTKGLTFNNDIAVTLDGATLDATNYKLVADDQGFRLVLTDKGLEAVAKAAKTKDVEIKITYSATLNGSAVVEVLETNDVKLDYGNNPTIENEPKEGIPVDKKITVNKTWAVDGNEVNKADETVDAVFTLQVKDGDKWVNVDSAKATAATSFKHTFENLDNAKTYRVIERVSGYAPEYVSFVNGVVTIKNNKDSNEPTPINPSEPKVVTYGRKFVKTNKDGKERLAGATFLVKKDGKYLARKSGVATDAEKAAVDSTKSALDAAVKAYNDLTKEKQEGQDGKSALATVSEKQKAYNDAFVKANYSYEWVEDKNAKNVVKLISNDKGQFEITGLTEGQYSLEETQAPTGYAKLSGDVSFNVNATSYSKGSAQDIEYTQGSKTKDA
- binding result (GalacTag7_fHbp): no binding (tested: 1:1 molar ratio)

B2: GalacDock5 with MHHHHHHS leader (designed binder)
chain: MHHHHHHSNVVTDEPKTDKDVKKLGQDDAGYTIGEEFKWFLKSTIPANLGDYEKFEITDKFADGLTYKSVGKIKIGSKTLNRDEHYTIDEPTVDNQNTLKITFKPEKFKEIAELLKGMTLVKNQDALDKATANTDDAAFLEIPVASTINEKAVLGKAIENTFELQYDHTPDKADNPKPSNPPRKPEVHTGGKRFVKKDSTETQTLGGAEFDLLASDGTAVKWTDALIKANTNKNYIAGEAVTGQPIKLKSHTDGTFEIKGLAYAVDANAEGTAVTYKLKETKAPEGYVIPDKEIEFTVSQTSYNTKPTDITVDSAD
notes: Expressed in E. coli and purified on a HisTrap HP column
- binding result (GalacTag5_fHbp): no binding (tested: 1:1 molar ratio)

B3: GalacDock6 with MHHHHHHS leader (designed binder)
chain: MHHHHHHSNTETKPQVDKNFADKELDYANNKKDKGTVSASVGDVKKYHVGTKILKGSDYKKLIWTDSMTKGLTFNNDIAVTLDGATLDATNYKLVADDQGFRLVLTDKGLEAVAKAAKTKDVEIKITYSATLNGSAVVEVLETNDVKLDYGNNPTIENEPKEGIPVDKKITVNKTWAVDGNEVNKADETVDAVFTLQVKDGDKWVNVDSAKATAATSFKHTFENLDNAKTYRVIERVSGYAPEYVSFVNGVVTIKNNKDSNEPTPINPSEPKVVTYGRKFVKTNKDGKERLAGATFLVKKDGKYLARKSGVATDAEKAAVDSTKSALDAAVKAYNDLTKEKQEGQDGKSALATVSEKQKAYNDAFVKANYSYEWVEDKNAKNVVKLISNDKGQFEITGLTEGQYSLEETQAPTGYAKLSGDVSFNVN
notes: It forms a covalent isopeptide bond with GalacTag6; also called GalacDoc6; GlacDock6
- binding result (GalacTag7_fHbp): no binding (tested: 1:1 molar ratio)
- binding result (GalacTag6_fHbp (N636A)): no binding (tested: 1:1 molar ratio)
- binding result [1]: binds
- binding result [2]: binds
- binding result (GalacTag6_fHbp [3]): binds
- binding result [4]: binds

B4: GalacDock6 variant E589Q (designed binder)
chain: MHHHHHHSNTETKPQVDKNFADKELDYANNKKDKGTVSASVGDVKKYHVGTKILKGSDYKKLIWTDSMTKGLTFNNDIAVTLDGATLDATNYKLVADDQGFRLVLTDKGLEAVAKAAKTKDVEIKITYSATLNGSAVVEVLETNDVKLDYGNNPTIENEPKEGIPVDKKITVNKTWAVDGNEVNKADETVDAVFTLQVKDGDKWVNVDSAKATAATSFKHTFENLDNAKTYRVIERVSGYAPEYVSFVNGVVTIKNNKDSNEPTPINPSEPKVVTYGRKFVKTNKDGKERLAGATFLVKKDGKYLARKSGVATDAEKAAVDSTKSALDAAVKAYNDLTKEKQEGQDGKSALATVSEKQKAYNDAFVKANYSYEWVEDKNAKNVVKLISNDKGQFEITGLTEGQYSLEQTQAPTGYAKLSGDVSFNVN
- binding result (GalacTag6_fHbp [5]): no binding (tested: 1:1 molar ratio)

B5: GalacDock6 variant E589A (designed binder)
chain: MHHHHHHSNTETKPQVDKNFADKELDYANNKKDKGTVSASVGDVKKYHVGTKILKGSDYKKLIWTDSMTKGLTFNNDIAVTLDGATLDATNYKLVADDQGFRLVLTDKGLEAVAKAAKTKDVEIKITYSATLNGSAVVEVLETNDVKLDYGNNPTIENEPKEGIPVDKKITVNKTWAVDGNEVNKADETVDAVFTLQVKDGDKWVNVDSAKATAATSFKHTFENLDNAKTYRVIERVSGYAPEYVSFVNGVVTIKNNKDSNEPTPINPSEPKVVTYGRKFVKTNKDGKERLAGATFLVKKDGKYLARKSGVATDAEKAAVDSTKSALDAAVKAYNDLTKEKQEGQDGKSALATVSEKQKAYNDAFVKANYSYEWVEDKNAKNVVKLISNDKGQFEITGLTEGQYSLEATQAPTGYAKLSGDVSFNVN
- binding result (GalacTag6_fHbp [5]): no binding (tested: 1:1 molar ratio)

B6: GalacDock6 variant K463A (designed binder)
chain: MHHHHHHSNTETKPQVDKNFADKELDYANNKKDKGTVSASVGDVKKYHVGTKILKGSDYKKLIWTDSMTKGLTFNNDIAVTLDGATLDATNYKLVADDQGFRLVLTDKGLEAVAKAAKTKDVEIKITYSATLNGSAVVEVLETNDVKLDYGNNPTIENEPKEGIPVDKKITVNKTWAVDGNEVNKADETVDAVFTLQVKDGDKWVNVDSAKATAATSFKHTFENLDNAKTYRVIERVSGYAPEYVSFVNGVVTIKNNKDSNEPTPINPSEPKVVTYGRKFVATNKDGKERLAGATFLVKKDGKYLARKSGVATDAEKAAVDSTKSALDAAVKAYNDLTKEKQEGQDGKSALATVSEKQKAYNDAFVKANYSYEWVEDKNAKNVVKLISNDKGQFEITGLTEGQYSLEETQAPTGYAKLSGDVSFNVN
- binding result (GalacTag6_fHbp [5]): no binding (tested: 1:1 molar ratio)
